Source: IntAct's records for PubMed 19416828

B1: Splicing factor rtf2 (Schizosaccharomyces pombe (strain ATCC 38366 / 972)), Q10154 (parent)
chain: MGNDGGSLPTRNELVKEPGKVPPLDIDFKRSVKSSQFSQCAITDEPLYPPIVSCGLGKLYNKASILQMLLDRSSVPKSPSHIKSLKDVVQLQVELDDSGKVLWLCPITRHVMSDTYQFAYIVPCGHVFEYSALKQFGEKMCFQCNQVYEEKDVIPINPNAEQLKTLSKRLLDLALSEKTHSLNKASKKSNKNGDKKRKHVSKSNSKHAKHELRTNRMLDGENVKSETSVTDMERVKRVKI
partner: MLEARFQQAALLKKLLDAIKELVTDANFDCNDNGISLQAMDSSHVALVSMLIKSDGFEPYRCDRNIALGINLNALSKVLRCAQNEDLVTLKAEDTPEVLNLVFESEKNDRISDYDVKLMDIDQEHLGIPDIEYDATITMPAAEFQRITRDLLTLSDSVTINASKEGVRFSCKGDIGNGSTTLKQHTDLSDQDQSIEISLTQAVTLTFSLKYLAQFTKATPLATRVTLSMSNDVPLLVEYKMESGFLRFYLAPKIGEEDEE

Variants of: B1
Conditions: with pcna_schpo pcn1, Q03392

effect of a mutation on the interaction | Variant
disrupting interaction | C141G
